This passage reports Kd and EC50 results from patent publication US20140178389A1.

The target of test [1] is recombinant cynomolgus IL-1β (cynomolgus) (UniProt P79182). The experiment in a line: yeast surface display, flow cytometry with biotinylated antigen.
Test [2] addresses recombinant human IL-1β (human) (UniProt P01584). The description is as above.
In test [3] the target is recombinant cynomolgus IL-1β (cynomolgus) (UniProt P79182). The test can be described thus: flow cytometry of yeast-displayed scFv, titration of biotinylated IL-1b, 25 °C, 30 min, mean fluorescence [Parental]. (Flow cytometry measures light scatter and fluorescence of single cells or particles in a stream.)
Test [4] addresses recombinant human IL-1β (human) (UniProt P01584). The test is described as above.

Sequence of recombinant cynomolgus IL-1β (cynomolgus) (P79182 117-268 limits assumed): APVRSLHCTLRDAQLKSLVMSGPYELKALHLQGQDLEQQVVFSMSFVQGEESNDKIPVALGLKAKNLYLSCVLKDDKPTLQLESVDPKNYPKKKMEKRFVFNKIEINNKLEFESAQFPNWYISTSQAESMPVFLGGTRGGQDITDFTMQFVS
Sequence of recombinant human IL-1β (human) (P01584 117-269): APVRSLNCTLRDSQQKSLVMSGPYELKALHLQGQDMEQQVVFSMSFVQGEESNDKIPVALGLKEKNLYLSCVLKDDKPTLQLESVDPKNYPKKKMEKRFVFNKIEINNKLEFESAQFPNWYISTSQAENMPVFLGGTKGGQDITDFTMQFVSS

B1: h1B12.1 scFv displayed on the surface of yeast (scFv, part only; not given: linker, domain order, yeast display partner, V domains shown, not shown: another chain or arm of the molecule; large carriers; small tags and cut ends)
VH: EVQLQESGPGLVKPSETLSLTCTVSGFSLSDYGVSWIRQPPGKGLEWLGLIWGGGDTYYNSPLKSRLTISKDNSKSQVSLKLSSVTAADTAVYYCAKQRTLWGYDLYGMDYWGQGTLVTVSS
VL: DTQVTQSPSSLSASVGDRVTITCITSTDIDVDMNWYQQKPGKPPKLLISQGNTLRPGVPSRFSSSGSGTDFTFTISSLQPEDFATYYCLQSDNLPLTFGQGTKLEIK
As for B1, the Kd in test [1] and in test [2] was 10 to 30 nM in each case. Moreover, the values for the concentration for a half-maximal effect (EC50) in test [3] and in test [4] were 23.5 nM and 15.1 nM, respectively.

Usually Kd stands for the equilibrium constant for the complex coming apart. A word on the EC50: it is the concentration at which the effect is half-maximal.
